Laboratory results reported in PMC11615311 (Nature Communications, 2024).

What was measured:
[1] = target: UAF1-USP1 complex (purified) (UniProt Q8TAF3 1-677; O94782 1-785); assay: pull-down
[2] = target: BAZ1B-SMARCA5 complex (purified) (human | , UniProt Q9UIG0 1-1483; O60264 1-1052); assay: pull-down
Chain of BAZ1B-SMARCA5 complex (purified) (Q9UIG0 whole entry, chain 1 of 2): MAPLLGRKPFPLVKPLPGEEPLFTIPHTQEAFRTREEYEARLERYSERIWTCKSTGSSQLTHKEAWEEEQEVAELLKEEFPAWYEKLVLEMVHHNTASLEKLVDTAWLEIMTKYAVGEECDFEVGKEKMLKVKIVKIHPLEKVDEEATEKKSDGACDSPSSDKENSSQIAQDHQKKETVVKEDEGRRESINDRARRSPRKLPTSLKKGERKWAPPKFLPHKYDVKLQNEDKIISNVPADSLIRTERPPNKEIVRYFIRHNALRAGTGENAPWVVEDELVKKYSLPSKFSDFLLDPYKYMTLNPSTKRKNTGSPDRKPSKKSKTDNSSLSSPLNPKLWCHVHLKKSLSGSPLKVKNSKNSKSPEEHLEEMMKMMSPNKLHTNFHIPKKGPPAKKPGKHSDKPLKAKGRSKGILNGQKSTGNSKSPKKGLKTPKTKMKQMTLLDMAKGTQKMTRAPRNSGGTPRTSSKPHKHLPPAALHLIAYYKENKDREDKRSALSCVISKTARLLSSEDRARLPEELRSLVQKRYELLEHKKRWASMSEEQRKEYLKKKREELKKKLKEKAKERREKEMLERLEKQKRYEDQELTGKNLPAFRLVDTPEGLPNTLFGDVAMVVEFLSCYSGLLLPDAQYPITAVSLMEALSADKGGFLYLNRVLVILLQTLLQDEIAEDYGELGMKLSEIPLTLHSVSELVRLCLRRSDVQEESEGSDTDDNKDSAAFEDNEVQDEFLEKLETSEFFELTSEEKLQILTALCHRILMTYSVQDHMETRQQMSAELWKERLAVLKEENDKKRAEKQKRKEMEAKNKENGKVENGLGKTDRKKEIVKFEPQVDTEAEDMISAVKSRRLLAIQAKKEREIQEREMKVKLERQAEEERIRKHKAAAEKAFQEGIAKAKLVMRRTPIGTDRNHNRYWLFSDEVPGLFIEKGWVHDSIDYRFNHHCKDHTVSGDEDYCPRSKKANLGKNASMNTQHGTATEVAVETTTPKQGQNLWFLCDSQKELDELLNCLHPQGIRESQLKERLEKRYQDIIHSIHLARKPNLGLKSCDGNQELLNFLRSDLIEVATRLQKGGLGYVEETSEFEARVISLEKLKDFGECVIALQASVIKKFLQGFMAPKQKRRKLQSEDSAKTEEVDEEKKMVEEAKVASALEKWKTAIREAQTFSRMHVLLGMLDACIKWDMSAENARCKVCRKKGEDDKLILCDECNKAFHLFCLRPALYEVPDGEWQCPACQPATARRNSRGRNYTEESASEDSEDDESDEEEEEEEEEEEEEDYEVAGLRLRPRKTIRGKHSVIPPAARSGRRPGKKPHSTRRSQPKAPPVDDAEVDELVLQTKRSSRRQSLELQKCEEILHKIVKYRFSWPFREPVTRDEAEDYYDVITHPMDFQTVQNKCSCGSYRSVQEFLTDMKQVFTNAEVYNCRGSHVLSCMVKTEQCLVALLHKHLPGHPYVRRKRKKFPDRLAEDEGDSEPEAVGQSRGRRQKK
Chain of BAZ1B-SMARCA5 complex (purified) (O60264 whole entry, chain 2 of 2): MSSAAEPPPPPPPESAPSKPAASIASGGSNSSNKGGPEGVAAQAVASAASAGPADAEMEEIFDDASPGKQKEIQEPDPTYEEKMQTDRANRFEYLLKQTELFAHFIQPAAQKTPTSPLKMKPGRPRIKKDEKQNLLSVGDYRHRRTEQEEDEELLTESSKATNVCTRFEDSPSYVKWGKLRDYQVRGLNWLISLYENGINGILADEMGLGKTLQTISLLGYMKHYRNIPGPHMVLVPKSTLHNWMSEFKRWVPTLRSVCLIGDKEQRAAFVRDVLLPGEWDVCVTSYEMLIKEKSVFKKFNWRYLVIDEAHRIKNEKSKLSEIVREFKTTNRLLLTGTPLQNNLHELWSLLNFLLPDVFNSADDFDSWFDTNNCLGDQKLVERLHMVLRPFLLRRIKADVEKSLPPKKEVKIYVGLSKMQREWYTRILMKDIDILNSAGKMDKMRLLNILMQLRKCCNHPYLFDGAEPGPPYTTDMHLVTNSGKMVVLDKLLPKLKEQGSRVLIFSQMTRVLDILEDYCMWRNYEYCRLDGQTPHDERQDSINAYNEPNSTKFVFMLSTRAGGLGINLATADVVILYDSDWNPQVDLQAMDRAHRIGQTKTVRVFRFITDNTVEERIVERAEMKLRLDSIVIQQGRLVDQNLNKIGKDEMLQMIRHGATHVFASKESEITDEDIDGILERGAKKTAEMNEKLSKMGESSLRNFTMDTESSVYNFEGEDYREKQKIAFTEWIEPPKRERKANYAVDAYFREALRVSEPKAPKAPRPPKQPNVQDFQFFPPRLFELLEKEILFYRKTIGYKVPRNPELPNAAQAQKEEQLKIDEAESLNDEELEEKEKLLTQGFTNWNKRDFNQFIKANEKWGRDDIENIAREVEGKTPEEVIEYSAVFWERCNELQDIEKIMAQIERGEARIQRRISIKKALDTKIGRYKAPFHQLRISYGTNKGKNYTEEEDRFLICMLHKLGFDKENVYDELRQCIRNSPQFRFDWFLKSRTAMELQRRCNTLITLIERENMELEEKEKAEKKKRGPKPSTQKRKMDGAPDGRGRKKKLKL

Chain of UAF1-USP1 complex (purified) (Q8TAF3 whole entry, chain 1 of 2): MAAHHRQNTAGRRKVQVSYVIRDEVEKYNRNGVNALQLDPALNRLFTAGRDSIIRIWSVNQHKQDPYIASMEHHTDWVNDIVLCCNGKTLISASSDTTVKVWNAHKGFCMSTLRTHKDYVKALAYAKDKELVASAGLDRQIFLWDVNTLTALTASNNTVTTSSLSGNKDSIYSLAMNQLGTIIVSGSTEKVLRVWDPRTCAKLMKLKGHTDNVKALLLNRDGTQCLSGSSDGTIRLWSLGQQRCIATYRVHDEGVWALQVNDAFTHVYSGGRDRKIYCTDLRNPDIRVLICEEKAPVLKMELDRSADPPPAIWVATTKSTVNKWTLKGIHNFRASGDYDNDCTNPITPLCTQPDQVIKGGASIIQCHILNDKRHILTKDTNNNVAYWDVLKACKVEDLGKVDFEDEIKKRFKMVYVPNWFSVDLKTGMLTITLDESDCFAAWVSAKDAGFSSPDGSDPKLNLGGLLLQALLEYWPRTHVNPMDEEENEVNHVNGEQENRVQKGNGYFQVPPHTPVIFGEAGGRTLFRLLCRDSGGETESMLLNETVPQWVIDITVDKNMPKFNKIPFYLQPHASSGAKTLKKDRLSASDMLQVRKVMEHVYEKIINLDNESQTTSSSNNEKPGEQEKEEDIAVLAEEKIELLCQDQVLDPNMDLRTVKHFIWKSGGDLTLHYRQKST
Chain of UAF1-USP1 complex (purified) (O94782 whole entry, chain 2 of 2): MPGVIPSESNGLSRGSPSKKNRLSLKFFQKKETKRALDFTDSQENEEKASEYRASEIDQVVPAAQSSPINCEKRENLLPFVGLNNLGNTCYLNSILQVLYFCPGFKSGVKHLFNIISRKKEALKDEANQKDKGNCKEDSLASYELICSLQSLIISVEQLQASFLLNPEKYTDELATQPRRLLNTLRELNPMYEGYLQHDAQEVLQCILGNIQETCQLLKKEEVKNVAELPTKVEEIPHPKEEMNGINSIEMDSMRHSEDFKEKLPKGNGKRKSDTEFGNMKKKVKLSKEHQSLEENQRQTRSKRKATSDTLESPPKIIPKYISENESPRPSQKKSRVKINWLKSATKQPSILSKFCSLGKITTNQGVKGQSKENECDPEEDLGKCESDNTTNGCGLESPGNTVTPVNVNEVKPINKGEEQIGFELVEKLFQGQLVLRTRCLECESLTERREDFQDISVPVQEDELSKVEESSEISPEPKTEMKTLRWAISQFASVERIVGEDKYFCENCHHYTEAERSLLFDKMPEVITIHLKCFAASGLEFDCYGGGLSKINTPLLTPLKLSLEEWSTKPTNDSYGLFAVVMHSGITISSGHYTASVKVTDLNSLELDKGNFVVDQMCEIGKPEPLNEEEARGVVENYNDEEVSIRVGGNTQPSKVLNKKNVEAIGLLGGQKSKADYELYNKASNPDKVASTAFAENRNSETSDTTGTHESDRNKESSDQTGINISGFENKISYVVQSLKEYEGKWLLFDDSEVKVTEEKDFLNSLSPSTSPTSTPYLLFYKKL

B1: MBP-tagged ATAD5 (1–603) (domain or fragment, human, UniProt Q96QE3 1-603, looked up)
chain: MVGVLAMAAAAAPPPVKDCEIEPCKKRKKDDDTSTCKTITKYLSPLGKTRDRVFAPPKPSNILDYFRKTSPTNEKTQLGKECKIKSPESVPVDSNKDCTTPLEMFSNVEFKKKRKRVNLSHQLNNIKTENEAPIEISSDDSKEDYSLNNDFVESSTSVLRYKKQVEVLAENIQDTKSQPNTMTSLQNSKKVNPKQGTTKNDFKKLRKRKCRDVVDLSESLPLAEELNLLKKDGKDTKQMENTTSHANSRDNVTEAAQLNDSIITVSYEEFLKSHKENKVEEIPDSTMSICVPSETVDEIVKSGYISESENSEISQQVRFKTVTVLAQVHPIPPKKTGKIPRIFLKQKQFEMENSLSDPENEQTVQKRKSNVVIQEEELELAVLEAGSSEAVKPKCTLEERQQFMKAFRQPASDALKNGVKKSSDKQKDLNEKCLYEVGRDDNSKKIMENSGIQMVSKNGNLQLHTDKGSFLKEKNKKLKKKNKKTLDTGAIPGKNREGNTQKKETTFFLKEKQYQNRMSLRQRKTEFFKSSTLFNNESLVYEDIANDDLLKVSSLCNNNKLSRKTSIPVKDIKLTQSKAESEASLLNVSTPKSTRRSGRISST
binding result [1]: binds
binding result [2]: binds
